Consider 13 molecules from US20160032001A1 (APEXIGEN, published 2016).

Experiment [1] addresses T1, RANKL expressed on the surface of 293 cells (UniProt O14788 1-317, limits assumed).
T1 construct: whole, on cells; also called RANKL-transfected 293 cells; cells expressing RANKL
T1 sequence (looked up): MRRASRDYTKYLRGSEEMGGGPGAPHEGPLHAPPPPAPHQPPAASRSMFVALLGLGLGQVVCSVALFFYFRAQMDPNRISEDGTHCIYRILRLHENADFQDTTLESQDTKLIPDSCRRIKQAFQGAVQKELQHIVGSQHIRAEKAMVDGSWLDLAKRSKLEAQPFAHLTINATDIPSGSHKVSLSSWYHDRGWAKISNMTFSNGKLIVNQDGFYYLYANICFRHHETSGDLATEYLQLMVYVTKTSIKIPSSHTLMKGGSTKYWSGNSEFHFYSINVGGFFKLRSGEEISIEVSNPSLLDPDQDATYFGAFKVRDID
Kind of experiment: flow cytometry (MFI) on RANKL-transfected 293 cells.

Experiment [2] addresses T2, human RANKL protein (human, UniProt O14788 140-317, limits assumed).
T2 sequence (looked up): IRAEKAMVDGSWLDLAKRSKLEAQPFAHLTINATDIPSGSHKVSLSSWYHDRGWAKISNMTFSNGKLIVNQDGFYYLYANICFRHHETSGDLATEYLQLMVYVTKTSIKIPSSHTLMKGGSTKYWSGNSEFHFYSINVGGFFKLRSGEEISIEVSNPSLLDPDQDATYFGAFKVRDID
The experiment in a line: competition ELISA: RANKL (0.5 ug/ml) pre-incubated with the antibody, then binding to coated human RANK (8 ug/ml) detected; blocked partner RANK.

The target in experiment [3] is T1, RANKL expressed on the surface of 293 …. Kind of experiment: flow cytometry (MFI) on RANKL-transfected 293 cells. This is another data set of the same source.
For experiment [4], the target named is T2, human RANKL protein. Kind of experiment: competition ELISA: RANKL (0.5 ug/ml) pre-incubated with the antibody, then binding to coated human RANK (8 ug/ml) detected; blocked partner RANK. The source holds these as a separate data set.
In experiment [5] the target is T1, RANKL expressed on the surface of 293 …. Kind of experiment: flow cytometry (MFI) on RANKL-transfected 293 cells. The source holds these as a separate data set.
The target in experiment [6] is T2, human RANKL protein. The experiment in a line: competition ELISA: RANKL (0.5 ug/ml) pre-incubated with the antibody, then binding to coated human RANK (8 ug/ml) detected; blocked partner RANK. The source holds these as a separate data set.
Experiment [7] addresses T2, human RANKL protein. The experiment in a line: cell-based or functional assay.
Experiment [8] addresses T2, human RANKL protein. The experiment in a line: surface plasmon resonance.

Read-outs that look alike come from different tables or passages of the source.

B1: clone EBI-51-4 rabbit anti-RANKL antibody (antibody, V domains shown)
VH: QSVEESGGRLVKPGESLTLTCTASGFSLSSDVISWVRQAPGKGLEWIGYGWSGGPTYYANWAKGRFTISKTSSTTVDLKITSPTTEDTATYFCARGFNPFDPWGPGTLVTVSS
VL: DMTQTPASVSEPVGGTVTIKCQASQNIGSNLAWYQQKPGQRPKLLIYRASTLASGVSSRFKGSGSGTQFTLTISDLECADAATYYCQQGYSAGNVDNSFGGGTEVVVK
In experiment [1], B1 gave an EC50 of 0.078 µg/mL. This molecule also displayed an IC50 in experiment [2] of 0.0388 µg/mL.

B2: clone 388 rabbit anti-RANKL antibody (antibody, V domains shown)
VH: QSVEESGGRLVTPGTPLTLTCTVSGFSLSSGVVSWVRQAPGKGLEWIGYAWSGGPTYYANWAKGRFTISKSSTTVDLKITSPTTADTATYFCARGYNGMDPWGPGTLVTVSS
VL: DMTQTPASVEVAVGGTVTIKCQASQNIGSNLAWYQQKPGQPPKLLIYKASTLASGVPSRFRGSGSGTEFTLAISDLECADAATYYCQQGYTTKDVVNPFGGGTEVVVK
Molecule B2 gave an EC50 in experiment [3] of 0.665 µg/mL. The IC50 in experiment [4] stood at 0.161 µg/mL.

B3: clone 411 rabbit anti-RANKL antibody (antibody, V domains shown)
VH: QSVEESGGRLVTPGTPLTLTCTVSGFSLSSGVVSWVRQAPGKGLEWIGYAWSGGPTYYANWAKGRFTISKSSTTVDLKITSPTTADTATYFCARGYNGMDPWGPGTLVTVSS
VL: DMTQTPASVEVAVGGTVTIKCQASQNIGSNLAWYQQKPGQPPKLLIYKASTLASGVPSRFRGSGSGTEFTLAISDLECADAATYYCQQGYTTKDVVNPFGGGTEVVVK
In turn, B3 had an EC50 in experiment [5] of 0.108 µg/mL. In experiment [6], this molecule had an IC50 of 0.0771 µg/mL.

B4: clone 416 rabbit anti-RANKL antibody (antibody, V domains shown)
VH: QSVKESGGGLVTPGGTLTLTCTVSGFSLSRNAMSWVRQTPGKGLEWIGYIYSGSSPYYANWAKGRFTISRTSTTVDLKMTSLTTEDTATYFCARHVSDGGWYLDIWGPGTLVAVSL
VL: DMIQTPASVEVVVGGTVTFNCQASQNIGSNLAWYQQKPGQPPKLLIYSASTLASGVPSRFKGSGSGTQFTFTISDVECTDAATYYCQQAYSISNVDNAFGGGTEVVVK
B4 returned a 50% effective concentration (EC50) in experiment [5] of 0.203 µg/mL. In addition, the IC50 in experiment [6] amounted to 0.138 µg/mL.

B5: clone 420 rabbit anti-RANKL antibody (antibody, V domains shown)
VH: QEQLKESGGGLVTPGGILTLTCTASGFSLRSNAMSWVRQAPGKGLEWIGYIYPGGAPHYASWAKGRFTISRNSTTVDLKMTSLTTEDTATYFCARHVSGGGWYLDIWGPGTLVTVSL
VL: DMIQTPASVEVGVGGTVTINCQASQNIGSNLAWYQQKPGQPPKFLIYGASTLASGVSSRFKGSGSGTRFTFTISDVECTDAATYYCQQAYSVGNVDNAFGGGTEVVVK
Turning to B5, in experiment [5], the EC50 came to 0.215 µg/mL. The IC50 in experiment [6] is 0.0754 µg/mL.

B6: clone 447 rabbit anti-RANKL antibody (antibody, V domains shown)
VH: QEQLKESGGGLVTPGGILTLTCTASGFSLRSNAMSWVRQAPGKGLEWIGYIYPGGAPHYASWAKGRFTISRNSTTVDLKMTSLTTEDTATYFCARHVSGGGWYLDIWGPGTLVTVSL
VL: DMIQTPASVEVGVGGTVTINCQASQNIGSNLAWYQQKPGQPPKFLIYGASTLASGVSSRFKGSGSGTRFTFTISDVECTDAATYYCQQAYSVGNVDNAFGGGTEVVVK
In turn, B6 yielded an EC50 in experiment [5] of 0.0617 µg/mL. The molecule also gave a concentration for half-maximal inhibition (IC50) in experiment [6] of 0.0537 µg/mL.

B7: clone 383 rabbit anti-RANKL antibody (antibody, V domains shown)
VH: QSLEESGGDLVKPGASLTLTCTASGFSFSRYVCWVRQAPGKGLEWIGCIAAGSSGYTYYASWAKGRLTISKTSSTTLTLQMTSLTVADTATYFCARSGDSYVGYFNLWGPGTLVTVSS
VL: IVMTQTPASVEAAVGGTVTIKCQASQNIYNYLAWYQQQPGQPPKLLIYSASNLASGVSSRFKGSGSGTEFTLTISDLECGDAATYYCQSYYDSSRISYGSAFGGGTEVVVK
Regarding B7, in experiment [7], the “IC50 in a RAW cell assay (TRAP activity, OD 405 nM)” value is 0.002 µg/mL. In experiment [3], this molecule gave an EC50 of 0.15 µg/mL. In addition, the IC50 in experiment [4] was found to be 0.0621 µg/mL.

B8: clone EBI-51-11 rabbit anti-RANKL antibody (antibody, V domains shown)
VH: QSVEESGGRLITPGTPLTLTCTVSGFSLSTDVVSWVRQAPGTGLEWIGYTWSGGSTYYAIWAKGRFTISKTSSTTVDLKITSPTTEDTATYFCARGFNPFDPWGPGTLVTVSS
VL: DMTQTPASVSEPVGGTVTIKCQASQNIGSNLAWYQQKPGQRPKLLIYRASTLASGVSSRFKGSGSGTQFTLTISDLECADAATYYCQQGYSAGNVDKHVFGGGTEVVVK
Molecule B8 gave an EC50 in experiment [1] of 0.0757 µg/mL. This molecule registered an IC50 in experiment [2] of 0.0656 µg/mL.

B9: clone EBI-51-1 rabbit anti-RANKL antibody (antibody, V domains shown)
VH: QEQLEESGGGLVKPEGSLTLTCTASGFDLSTYYYMCWVRQAPGKGLEWIACIYTGRASTYYATWAKGRFTISKTSSTTVTLQMTSLTAADTATFFCASKAGDIWYYGMDLWGPGTLVTVSS
VL: DMTQTPASVSEPVGGTVTIKCQASQNIGSNLAWYQQKPGQRPKLLIYRASTLASGVSSRFKGSGSGTQFTLTISDLECADAATYYCQQGYSAGNVDNNTFGGGTEVVVK
In experiment [1], B9 came in with an EC50 of 0.0867 µg/mL. In experiment [2], the IC50 is 0.0753 µg/mL.

B10: clone EBI-51-2 rabbit anti-RANKL antibody (antibody, V domains shown)
VH: QSLEESGGRLVTPGTPLTLTCTASGFTISTDVISWVRQAPGKGLEWIGYTWSGGSTYYANWAKGRFTLSKTSSTTVDLKITSPTIEDTATYFCARGFNPFDPWGPGTLVTVSS
VL: DMIQTPASVSEPVGGTVTIVCQASQNIGSNFAWYQQKPGQPPKLLIYRASTLASGVSSRFKGSGFGTQFTLTISDLECADAATYYCQQGYSAGNVDNNFGGGTEVVVK
As for B10, the EC50 in experiment [1] came out at 0.0621 µg/mL. The same molecule came in with an IC50 in experiment [2] of 0.0389 µg/mL.

B11: clone 327 rabbit anti-RANKL antibody (antibody, V domains shown)
VH: QSLEESGGRLVTPGTPLTLTCTVSGFSLSKYEINWVRQAPGKGLEWIGYIDVGSGTWYASWAKGRFTISKTSTTVALRITSPTTEDTATYFCSRQYNPMDLWGPGTLVTVSS
VL: DMTQTPASVEAAVGGTVTIKCQASQNIGSNLAWYQQKPGQRPKLLIYSASTLASGVPSRFKGSGSGTQFTLTISGVQCDDAATYYCQQGYSVGNVNNAFGGGTEVVVK
Regarding B11, the “IC50 in a RAW cell assay (TRAP activity, OD 405 nM)” value in experiment [7] was determined as 0.0075 µg/mL. In addition, in experiment [8], the Kd was determined as 2.13 nM, the koff was 0.0003 s⁻¹ and the kon was 141000 M⁻¹ s⁻¹. In experiment [3], this molecule came in with an EC50 of 0.0871 µg/mL. The same molecule showed a half-maximal inhibitory concentration (IC50) in experiment [4] of 0.0416 µg/mL.

B12: clone EBI-51-23 rabbit anti-RANKL antibody (antibody, V domains shown)
VH: QSVKESEGGLFKPTDTLTLTCTVSGFSLSIYEISWVRQAPGKELEWIGYIGVGGVTYYANWAKSRSTITRNTNQKMVALKMTSLTAADTATYFCARGYNPFDLWGPGTLVTVSS
VL: DMTQTPASVEVAVGGTVTINCQASQNIGSNLAWYQQKPGQPPKLLIYKASTLASGVPSRLKGSGSGTEFTLTISGVQCDDAATYYCQQGYTTGNVDNPFGGGTEVVVK
In the case of B12, the EC50 in experiment [1] stood at 0.156 µg/mL. Moreover, the IC50 in experiment [2] was 0.0482 µg/mL.

B13: clone 415 rabbit anti-RANKL antibody (antibody, V domains shown)
VH: QSVEESGGRLVTPGGSLTLTCTVSGFSLSNYEMNWVRQAPGKGLEWIGYIDVGSGTWYASWAKGRFTISKTSTTVDLKITSPTTEDTATYFCSRQYNPMDLWGPGTLVTVSS
VL: DMTQTPASVEVAVGGTVTIKCQASQNIGSNLAWYQQKPGQRPKLLIYSASTLASGVPSRFKGSGSGTQFTLTISGVQCDDAATYYCQQGYSVGNVNNAFGGGTEVVVK
In turn, B13 registered an EC50 in experiment [5] of 0.16 µg/mL. Moreover, the IC50 in experiment [6] was found to be 0.0545 µg/mL.
